Assay results from PMC10784544, “Ferric reduction by a CYBDOM protein counteracts increased iron availability in root meristems induced by phosphorus deficiency” (Nature Communications, 2024).

Substrate: O=C1O[C@H]([C@@H](O)CO)C(O)=C1O
Assay: two-electrode voltage clamp in Xenopus oocytes, trans-plasma membrane current
Format: cell-based, Arabidopsis thaliana
Conditions: cytosolic electron donor, raised by injection; ferricyanide as extracellular electron acceptor

B1: HYP1 (… TO LOW P1) (Arabidopsis thaliana) (protein)
chain: QSLCNTHRFTNNLAFADCSDLSALGSFLHWTYNEQNGTVSIAYRHPGTSASSWVAWGLNPSSTQMVGTQALVAFTNTTTNQFQAYTSSVSSYGTRLERSSLSFGVSGLSATLVSGEVTIFATLELSPNLITANQLWQVGPVVNGVPASHQTSGDNMRSSGRIDFRTGQASAGGGGSGDRLRKRNTHGVLNAVSWGVLMPMGAMMARYMKVFADPTWFYLHIAFQVSGYVIGVAGWATGIKLGNDSPGTSYSTHRNLGIALFTFATLQVFALLVRPKPDHKYRTYWNVYHHTVGYTTIILSIVNIFKGFDILDPEDKWRWAYIGILIFLGACVLILEPLTWFIVLRRKSRGGNTVAAPTSSKYSNGVNGTTTTGPHHQDA
notes: cDNA in pGEMHE, cRNA-injected Xenopus laevis oocytes
Km: 4 mM
